According to publication PMC2577357 (Nucleic Acids Research, 2008):

Legend:
[1] = molecular target: the molecule itself; test: glycerol gradient sedimentation
MthRnl = molecular target: T1, MthRnl (Methanobacterium thermoautotrophicum ΔH, UniProt O27289 1-381); test: EMSA
T1 sequence: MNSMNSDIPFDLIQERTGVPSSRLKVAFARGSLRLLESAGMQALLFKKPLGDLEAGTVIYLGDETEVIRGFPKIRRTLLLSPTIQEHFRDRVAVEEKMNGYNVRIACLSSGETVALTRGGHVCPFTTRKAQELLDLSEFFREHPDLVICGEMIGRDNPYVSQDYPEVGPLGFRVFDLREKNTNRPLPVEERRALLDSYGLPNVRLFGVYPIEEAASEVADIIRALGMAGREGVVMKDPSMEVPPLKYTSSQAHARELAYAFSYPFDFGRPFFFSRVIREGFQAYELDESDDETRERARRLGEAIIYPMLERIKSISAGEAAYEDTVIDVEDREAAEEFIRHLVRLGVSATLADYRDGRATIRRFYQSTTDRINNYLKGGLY

Row | Binder | stoichiometry N [1] | Kd (MthRnl) [µM]
1 | Methanobacterium RNA ligase (MthRnl), full-length, His10-tagged (enzyme, Methanobacterium thermoautotrophicum ΔH, UniProt O27289 1-381, looked up) MNSMNSDIPFDLIQERTGVPSSRLKVAFARGSLRLLESAGMQALLFKKPLGDLEAGTVIYLGDETEVIRGFPKIRRTLLLSPTIQEHFRDRVAVEEKMNGYNVRIACLSSGETVALTRGGHVCPFTTRKAQELLDLSEFFREHPDLVICGEMIGRDNPYVSQDYPEVGPLGFRVFDLREKNTNRPLPVEERRALLDSYGLPNVRLFGVYPIEEAASEVADIIRALGMAGREGVVMKDPSMEVPPLKYTSSQAHARELAYAFSYPFDFGRPFFFSRVIREGFQAYELDESDDETRERARRLGEAIIYPMLERIKSISAGEAAYEDTVIDVEDREAAEEFIRHLVRLGVSATLADYRDGRATIRRFYQSTTDRINNYLKGGLY | 2 | 
2 | AUUCCGAUAGUGCGUGUCGCCCUU (ssRNA, 5'-phosphate) [pRNA 24-mer] |  | ~1.5
3 | ATTCCGATAGTGCGTGTCGCCCTT (ssDNA, 5'-phosphate) [pDNA 24-mer] |  | ~2
